How the values were obtained:
[1] = tested on: IRE1α LD-Fc; assay: Co-immunoprecipitation of ovalbumin with IRE1α LD-Fc; format: binding, human; conditions: LD-Fc 10 μg/ml, 2 h; ovalbumin 1-300 μg/ml; in words
Experimental: For experiments testing ovalbumin binding, a human LD-Fc was used at indicated concentrations. LD-Fc is comprised of amino acids M1-D443 of IRE1α fused C-terminally to a linker ([…]) followed by the human IgG1 hinge and Fc portion. Ovalbumin (Sigma-Aldrich) was dissolved in sterile PBS and used in native state or denatured as indicated by incubation at 95°C buffer for 10 min.
For co-immunoprecipitation experiments, IRE1α LD-Fc (10 μg/ml) and ovalbumin (indicated concentrations) were co-incubated in binding buffer (as described above) for 2 h and then immunoprecipitated with anti-IRE1α LD antibody (made in-house at Genentech), conjugated to sepharose beads, overnight at 4°C. Beads were subsequently washed four times with lysis buffer and boiled in SDS sample buffer for 10 min. Samples were then analyzed by SDS-PAGE followed by immunoblot.

[2] = tested on: IRE1α in mouse embryonic fibroblasts (MEFs); assay: IRE1α activation in MEFs (immunoblot); format: cell-based; conditions: ovalbumin, 4 h
Experimental: Figure S1. Antigen pulsing of BMDCs activates IRE1α. (A) BMDCs were treated with MG132 (5 μM) or ovalbumin (500 μg/ml) for indicated time points and analyzed by IB. (B) BMDCs were pulsed with ovalbumin (500 μg/ml) and G9668 (3 μM) for indicated time periods and analyzed by IB. (C) Molecular structure, potency, and kinase selectivity of G9668. (D) Schematic representation of G9668 interaction with 220 kinases at 1 μM. Size and color of circles represent interaction strength. Analysis was conducted by KinomeScan. (E) BMDCs were pulsed for 4 h with APC-tagged ovalbumin or soluble CD4-Fc protein (500 μg/ml) with amiloride (10 μM); uptake of protein was assayed by flow cytometry (n = 3). (F) WT or MyD88 KO Flt3L-derived BMDCs were pulsed with ovalbumin (500 μg/ml) or soluble CD4-Fc protein (500 μg/ml), or treated with LPS (10 μg/ml) for 4 h and analyzed by IB. (G) MEFs and BMDCs were pulsed with ovalbumin or treated with Tg (100 nM) for 4 h and analyzed by IB. Images in A, B, F, and G represent at least two similar experiments, and molecular weights represent kD; E bar graphs represent mean ± SD from three independent biological repeats. Analysis for E was performed using unpaired, two-tailed t test; *, P ≤ 0.05; **, P ≤ 0.01. Source data are available for this figure: SourceData FS1. […]

B1: ovalbumin: classical protein antigen ovalbumin (Sigma-Aldrich) (protein)
chain: MGSIGAASMEFCFDVFKELKVHHANENIFYCPIAIMSALAMVYLGAKDSTRTQINKVVRFDKLPGFGDSIEAQCGTSVNVHSSLRDILNQITKPNDVYSFSLASRLYAEERYPILPEYLQCVKELYRGGLEPINFQTAADQARELINSWVESQTNGIIRNVLQPSSVDSQTAMVLVNAIVFKGLWEKAFKDEDTQAMPFRVTEQESKPVQMMYQIGLFRVASMASEKMKILELPFASGTMSMLVLLPDEVSGLEQLESIINFEKLTEWTSSNVMEERKIKVYLPRMKMEEKYNLTSVLMAMGITDVFSSSANLSGISSAESLKISQAVHAAHAEINEAGREVVGSAEAGVDAASVSEEFRADHPFLFCIKHIATNAVLFFGRCVSP
For B1, the “co-immunoprecipitation with IRE1α LD-Fc” value [1] was “did not show appreciable binding” and the “IRE1α activation, MEFs” value [2] was “did not display detectable IRE1α activation”.
